Data reported in patent US20140072613A1, “Compositions and Methods for Treating Cutaneous Scarring” (priority 2012, published 2014).

Legend:
Experiment in all cases: biochemical
Format in all cases: biochemical
[1] = molecular target: 266 human kinases (Homo sapiens, UniProt P00533, L858R/T790M); conditions: EGFR(T790M,L858R)(h); 100 μM
Outline: (§1)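 A filter-capture radiometric assay: phosphorylated cationic substrate binds an anionic membrane and is scintillation-counted, with values referenced to full-activity control.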

[2] = molecular target: 266 human kinases (Homo sapiens, UniProt P05129); conditions: PKCγ(h); 100 μM
Outline: as §1

[3] = molecular target: 266 human kinases (Homo sapiens, UniProt P14616); conditions: IRR(h); 100 μM
Outline: as §1

[4] = molecular target: 266 human kinases (Homo sapiens, UniProt P17612); conditions: PKA(h); 100 μM
Outline: as §1

[5] = molecular target: T1, 266 human kinases (Homo sapiens, UniProt P29323); conditions: EphB2(h); 100 μM
T1 sequence (P29323 19-1055): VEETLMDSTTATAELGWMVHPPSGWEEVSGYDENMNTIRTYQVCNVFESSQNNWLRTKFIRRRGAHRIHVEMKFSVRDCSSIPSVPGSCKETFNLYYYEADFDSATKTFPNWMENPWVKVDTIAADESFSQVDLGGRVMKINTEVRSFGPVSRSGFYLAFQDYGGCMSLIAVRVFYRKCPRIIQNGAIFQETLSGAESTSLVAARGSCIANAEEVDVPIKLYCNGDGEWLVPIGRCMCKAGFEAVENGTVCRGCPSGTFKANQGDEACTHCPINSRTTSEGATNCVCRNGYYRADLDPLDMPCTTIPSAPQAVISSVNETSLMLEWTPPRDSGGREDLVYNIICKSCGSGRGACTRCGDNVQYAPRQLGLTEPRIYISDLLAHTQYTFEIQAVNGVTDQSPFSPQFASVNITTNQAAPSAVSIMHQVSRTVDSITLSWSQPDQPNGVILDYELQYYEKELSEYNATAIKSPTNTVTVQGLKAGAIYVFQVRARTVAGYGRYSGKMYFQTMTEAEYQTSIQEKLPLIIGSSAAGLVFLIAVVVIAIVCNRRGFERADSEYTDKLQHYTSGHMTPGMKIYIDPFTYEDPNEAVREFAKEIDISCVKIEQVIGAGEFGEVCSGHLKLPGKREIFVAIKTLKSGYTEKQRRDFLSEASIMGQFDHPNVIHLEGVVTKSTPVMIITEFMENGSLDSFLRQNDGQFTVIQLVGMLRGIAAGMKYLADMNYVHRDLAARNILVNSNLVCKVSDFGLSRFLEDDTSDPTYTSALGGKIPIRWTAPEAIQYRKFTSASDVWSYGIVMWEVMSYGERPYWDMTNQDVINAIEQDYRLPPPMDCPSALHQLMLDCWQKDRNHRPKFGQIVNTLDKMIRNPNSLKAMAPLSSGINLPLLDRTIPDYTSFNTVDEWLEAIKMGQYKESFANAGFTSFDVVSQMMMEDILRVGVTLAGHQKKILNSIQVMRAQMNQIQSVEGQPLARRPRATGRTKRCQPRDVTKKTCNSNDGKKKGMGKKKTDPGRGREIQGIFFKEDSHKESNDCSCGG
Outline: as §1

[6] = molecular target: 266 human kinases (Homo sapiens, UniProt Q16513); conditions: PRK2(h); 100 μM
Outline: as §1

[7] = molecular target: T2, 266 human kinases (Homo sapiens, UniProt Q9UL54); conditions: TAO2(h); 100 μM
T2 sequence (Q9UL54 1-1235): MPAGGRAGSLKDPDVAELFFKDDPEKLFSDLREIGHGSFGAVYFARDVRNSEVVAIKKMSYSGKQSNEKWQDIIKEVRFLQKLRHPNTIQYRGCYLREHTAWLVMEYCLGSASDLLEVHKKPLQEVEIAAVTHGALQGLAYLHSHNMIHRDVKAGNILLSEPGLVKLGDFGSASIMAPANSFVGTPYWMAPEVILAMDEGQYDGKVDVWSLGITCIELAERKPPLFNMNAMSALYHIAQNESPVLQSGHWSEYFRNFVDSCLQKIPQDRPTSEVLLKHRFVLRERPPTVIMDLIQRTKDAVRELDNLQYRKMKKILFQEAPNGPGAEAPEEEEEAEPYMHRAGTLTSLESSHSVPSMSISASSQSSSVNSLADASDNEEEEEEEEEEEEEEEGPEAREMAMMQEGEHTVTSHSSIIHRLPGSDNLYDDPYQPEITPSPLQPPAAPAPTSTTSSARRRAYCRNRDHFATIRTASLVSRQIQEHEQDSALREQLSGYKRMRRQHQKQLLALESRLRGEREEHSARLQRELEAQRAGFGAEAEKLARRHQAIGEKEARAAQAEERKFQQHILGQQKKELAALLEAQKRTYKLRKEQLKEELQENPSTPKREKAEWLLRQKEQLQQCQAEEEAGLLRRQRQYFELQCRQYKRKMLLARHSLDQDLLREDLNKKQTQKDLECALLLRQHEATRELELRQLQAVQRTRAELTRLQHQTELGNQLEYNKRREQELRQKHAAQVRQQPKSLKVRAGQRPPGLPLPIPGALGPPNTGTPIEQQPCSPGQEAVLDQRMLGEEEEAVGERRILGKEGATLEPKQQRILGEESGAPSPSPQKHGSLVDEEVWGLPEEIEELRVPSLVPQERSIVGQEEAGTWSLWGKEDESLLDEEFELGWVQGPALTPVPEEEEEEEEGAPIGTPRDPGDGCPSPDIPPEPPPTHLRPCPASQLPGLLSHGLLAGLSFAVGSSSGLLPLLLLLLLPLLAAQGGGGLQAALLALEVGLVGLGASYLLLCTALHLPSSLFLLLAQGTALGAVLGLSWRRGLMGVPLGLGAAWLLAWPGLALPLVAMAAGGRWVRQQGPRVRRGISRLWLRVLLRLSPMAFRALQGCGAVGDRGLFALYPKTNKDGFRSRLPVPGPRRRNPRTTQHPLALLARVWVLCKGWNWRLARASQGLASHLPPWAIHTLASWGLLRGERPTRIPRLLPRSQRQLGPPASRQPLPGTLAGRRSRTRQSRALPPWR
Outline: as §1

266 human kinases (Homo sapiens, UniProt P14616), sequence (P14616 27-1297): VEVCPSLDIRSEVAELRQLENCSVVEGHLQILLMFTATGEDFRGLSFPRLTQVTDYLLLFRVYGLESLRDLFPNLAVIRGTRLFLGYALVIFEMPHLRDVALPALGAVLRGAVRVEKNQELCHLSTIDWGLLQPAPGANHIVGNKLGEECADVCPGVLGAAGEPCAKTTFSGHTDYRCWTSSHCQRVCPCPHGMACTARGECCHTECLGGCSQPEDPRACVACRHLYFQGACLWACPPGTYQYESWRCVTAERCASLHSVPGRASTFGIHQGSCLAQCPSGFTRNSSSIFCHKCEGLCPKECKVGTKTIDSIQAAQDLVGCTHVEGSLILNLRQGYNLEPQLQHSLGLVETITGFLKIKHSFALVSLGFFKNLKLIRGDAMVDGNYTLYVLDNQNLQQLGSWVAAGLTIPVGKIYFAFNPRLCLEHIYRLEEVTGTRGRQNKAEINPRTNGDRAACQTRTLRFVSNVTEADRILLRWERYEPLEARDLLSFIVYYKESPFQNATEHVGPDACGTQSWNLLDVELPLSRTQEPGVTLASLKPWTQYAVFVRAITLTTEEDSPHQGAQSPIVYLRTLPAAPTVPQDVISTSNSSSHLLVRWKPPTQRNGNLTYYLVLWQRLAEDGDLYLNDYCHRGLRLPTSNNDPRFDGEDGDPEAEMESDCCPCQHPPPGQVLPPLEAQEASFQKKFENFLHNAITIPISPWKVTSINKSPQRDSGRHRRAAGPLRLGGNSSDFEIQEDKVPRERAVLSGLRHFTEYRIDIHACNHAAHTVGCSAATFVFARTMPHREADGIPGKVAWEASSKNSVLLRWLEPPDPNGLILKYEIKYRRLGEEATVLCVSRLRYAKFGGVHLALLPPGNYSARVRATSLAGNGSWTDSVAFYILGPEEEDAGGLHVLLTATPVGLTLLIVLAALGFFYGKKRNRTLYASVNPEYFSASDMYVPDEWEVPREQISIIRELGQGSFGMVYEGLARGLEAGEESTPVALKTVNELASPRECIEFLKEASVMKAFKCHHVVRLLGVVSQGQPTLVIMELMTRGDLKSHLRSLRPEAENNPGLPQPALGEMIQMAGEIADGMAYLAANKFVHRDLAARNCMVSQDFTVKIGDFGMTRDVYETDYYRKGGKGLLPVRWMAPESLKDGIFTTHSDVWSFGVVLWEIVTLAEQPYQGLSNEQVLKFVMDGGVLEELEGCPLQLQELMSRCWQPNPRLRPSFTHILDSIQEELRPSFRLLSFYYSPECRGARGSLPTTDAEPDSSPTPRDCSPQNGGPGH
266 human kinases (Homo sapiens, UniProt Q16513), sequence (Q16513 whole entry): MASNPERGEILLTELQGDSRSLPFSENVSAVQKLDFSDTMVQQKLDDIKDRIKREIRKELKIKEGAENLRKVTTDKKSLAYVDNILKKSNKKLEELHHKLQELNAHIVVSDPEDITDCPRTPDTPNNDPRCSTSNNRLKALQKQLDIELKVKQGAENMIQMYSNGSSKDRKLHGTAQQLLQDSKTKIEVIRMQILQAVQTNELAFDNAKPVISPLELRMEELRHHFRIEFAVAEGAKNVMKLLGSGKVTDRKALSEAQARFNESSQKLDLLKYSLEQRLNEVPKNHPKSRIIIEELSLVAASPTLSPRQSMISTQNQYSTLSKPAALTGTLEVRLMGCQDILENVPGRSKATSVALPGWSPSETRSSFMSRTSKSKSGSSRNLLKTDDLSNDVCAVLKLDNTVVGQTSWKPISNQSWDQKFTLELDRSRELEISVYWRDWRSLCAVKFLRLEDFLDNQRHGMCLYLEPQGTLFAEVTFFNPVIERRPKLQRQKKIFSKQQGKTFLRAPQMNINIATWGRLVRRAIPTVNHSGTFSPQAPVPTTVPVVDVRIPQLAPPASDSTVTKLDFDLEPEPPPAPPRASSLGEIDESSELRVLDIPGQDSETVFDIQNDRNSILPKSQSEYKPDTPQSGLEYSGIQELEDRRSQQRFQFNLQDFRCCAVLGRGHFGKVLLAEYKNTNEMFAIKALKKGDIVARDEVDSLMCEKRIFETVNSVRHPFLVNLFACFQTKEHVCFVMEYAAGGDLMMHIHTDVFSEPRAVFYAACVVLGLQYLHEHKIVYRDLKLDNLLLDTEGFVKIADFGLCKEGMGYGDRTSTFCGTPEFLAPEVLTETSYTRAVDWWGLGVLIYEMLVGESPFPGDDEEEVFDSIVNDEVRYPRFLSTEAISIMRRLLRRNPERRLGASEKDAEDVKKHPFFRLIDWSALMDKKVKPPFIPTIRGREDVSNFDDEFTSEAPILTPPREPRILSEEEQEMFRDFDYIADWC

Sequence	% activity [1] [%]	% activity [2] [%]	% activity [3] [%]	% activity [4] [%]	% activity [5] [%]	% activity [6] [%]	% activity [7] [%]
HRRIKAWLKKIKALARQLGVAA (mammal) [MMI-0500]	53	6	10	118	70	7	15
YARAAARQARAKALNRQLGVA (mammal) [MMI-0200]	108	101	69	110	128	74	93
